Experimental data as given in US7479478B2, “Human parathyroid hormone modifications, preparation and use” (The General Hospital Corporation, priority 1998, dated 2009).
No end group written: not given here.

Molecular target: T1, human PTH-1 receptors (Homo sapiens, UniProt Q03431)
T1 construct: expressed in transfected cells
T1 sequence (Q03431 27-593): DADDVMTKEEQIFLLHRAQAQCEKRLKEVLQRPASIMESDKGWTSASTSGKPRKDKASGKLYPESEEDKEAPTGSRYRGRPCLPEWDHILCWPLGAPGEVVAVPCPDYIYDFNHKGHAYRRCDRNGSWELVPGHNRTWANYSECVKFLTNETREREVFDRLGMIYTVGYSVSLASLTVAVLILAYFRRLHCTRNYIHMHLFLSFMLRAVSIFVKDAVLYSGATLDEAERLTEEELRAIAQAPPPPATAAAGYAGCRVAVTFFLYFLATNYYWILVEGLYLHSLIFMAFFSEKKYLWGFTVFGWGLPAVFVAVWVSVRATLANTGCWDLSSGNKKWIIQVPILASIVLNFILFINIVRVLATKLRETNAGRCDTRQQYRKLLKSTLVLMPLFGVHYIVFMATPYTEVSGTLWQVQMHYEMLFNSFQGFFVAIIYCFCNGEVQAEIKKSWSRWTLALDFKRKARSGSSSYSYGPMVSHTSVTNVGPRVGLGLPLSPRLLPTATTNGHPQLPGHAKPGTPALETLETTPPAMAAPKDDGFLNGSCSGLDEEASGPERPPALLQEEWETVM
Assay: AC activation in cells that express fewer human PTH-1 receptors (LLC-PK1 subclones, SaOS-2)
Format: cell-based
Settings: LLC-PKI or SaOS-2 osteosarcoma cells, 10,000-100,000 receptors per cell; data not shown
Method: Intracellular cAMP accumulation, PLC activation and PTHR binding affinity were measured as previously reported (Bringhurst, F. R., et al., Endocrinology 132(5):2090-2098 (1993); Guo, J., et al., Endocrinology 136(9):3884-3891 (1995)). Intracellular cAMP accumulation was measured in extracts of cells that were exposed to human PTH peptides in the presence of isobutylmethyxanthine (IBMX, 1 mM) at 37° C. for 15 min. After terminating the reactions by aspiration and freezing in liquid nitrogen, cell monolayers were extracted with 50 mM HCl and cAMP was measured using a radioimmunoassay kit (Dupont-New England Nuclear, Boston, Mass.).
The possibility that the [Gly^1,Arg^19]hPTH-(1-28) peptide might be useful, especially in rodent models, as a signal-selective analog to dissociate AC from PLC signaling via the PTH-1 receptor was examined further using the EW5 subclone of LLC-PK1 cells that stably expresses rat PTH-1 receptors (Guo, J., et al., Endocrinology 136(9):3884-3891 (1995)). […]

fold reduction of AC activation relative to hPTH-(1-34): 10-20 fold
Sequence: GVSEIQLMHNLGKHLNSMRRVEWLRKKL [[Gly^1,Arg^19]hPTH-(1-28)]
